Experiment [1] deals with Human recombinant fibroblast activation protein alpha (human) (UniProt Q12884). In words: cross-linking + other: mass photometry.
Experiment [2] concerns the target Biotinylated dipeptidyl peptidase IV (Homo sapiens, UniProt P27487, biotin). The experiment is described as follows: BLI. Background: BLI is a label-free optical method that tracks binding on a fibre tip over time.

Consider two molecules from paper PMC11507940 (bioRxiv, 2024).

The term stoichiometry N denotes the number of molecules, sites or subunits per partner or assembly.

Chain of Biotinylated dipeptidyl peptidase IV (P27487 39-766): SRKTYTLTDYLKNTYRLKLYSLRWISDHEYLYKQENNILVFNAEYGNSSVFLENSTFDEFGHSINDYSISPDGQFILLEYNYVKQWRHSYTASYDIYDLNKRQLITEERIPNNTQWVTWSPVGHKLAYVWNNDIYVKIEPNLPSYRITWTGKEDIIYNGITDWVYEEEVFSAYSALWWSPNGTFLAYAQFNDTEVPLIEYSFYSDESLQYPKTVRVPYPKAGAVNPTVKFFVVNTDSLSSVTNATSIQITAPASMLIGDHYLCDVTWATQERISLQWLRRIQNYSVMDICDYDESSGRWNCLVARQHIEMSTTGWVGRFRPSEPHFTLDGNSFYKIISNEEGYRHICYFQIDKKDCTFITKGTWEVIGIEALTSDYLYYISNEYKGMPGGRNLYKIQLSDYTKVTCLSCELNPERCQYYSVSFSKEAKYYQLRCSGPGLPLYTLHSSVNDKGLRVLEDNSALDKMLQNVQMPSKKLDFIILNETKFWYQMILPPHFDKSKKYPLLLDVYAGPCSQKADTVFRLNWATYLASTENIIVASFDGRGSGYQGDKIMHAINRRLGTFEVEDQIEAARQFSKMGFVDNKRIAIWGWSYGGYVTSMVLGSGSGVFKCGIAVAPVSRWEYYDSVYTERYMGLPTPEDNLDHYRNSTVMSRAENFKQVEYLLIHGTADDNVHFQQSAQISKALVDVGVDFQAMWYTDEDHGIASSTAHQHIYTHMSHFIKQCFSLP
Chain of Human recombinant fibroblast activation protein alpha (human) (Q12884 39-757): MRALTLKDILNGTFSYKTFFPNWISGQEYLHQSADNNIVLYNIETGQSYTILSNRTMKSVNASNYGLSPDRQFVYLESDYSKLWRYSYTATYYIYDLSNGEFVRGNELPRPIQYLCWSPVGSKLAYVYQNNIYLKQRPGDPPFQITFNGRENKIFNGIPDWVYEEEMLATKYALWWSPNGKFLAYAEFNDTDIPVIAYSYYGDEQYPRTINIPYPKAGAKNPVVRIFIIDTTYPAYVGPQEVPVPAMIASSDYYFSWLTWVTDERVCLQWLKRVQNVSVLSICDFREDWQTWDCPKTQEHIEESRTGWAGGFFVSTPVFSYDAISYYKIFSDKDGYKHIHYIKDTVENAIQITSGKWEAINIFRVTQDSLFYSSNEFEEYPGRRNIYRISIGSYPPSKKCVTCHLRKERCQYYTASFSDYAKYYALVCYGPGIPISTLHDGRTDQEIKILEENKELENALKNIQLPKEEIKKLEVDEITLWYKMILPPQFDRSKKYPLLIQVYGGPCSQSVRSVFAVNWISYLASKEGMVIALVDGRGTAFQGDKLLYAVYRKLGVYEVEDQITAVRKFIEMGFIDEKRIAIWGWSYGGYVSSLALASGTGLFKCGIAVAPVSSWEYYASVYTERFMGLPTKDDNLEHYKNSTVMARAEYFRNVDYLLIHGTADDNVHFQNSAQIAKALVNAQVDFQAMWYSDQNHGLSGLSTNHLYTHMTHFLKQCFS

B1: SUMO-I3 (single domain antibody I3 fused to an N-terminal 6X His-SUMO-FLAG tag) (VHH)
VHH: EVQLVESGGGLVQPGGSLRLSCAASGFTFSSYAMSWVRQAPGKGLEWVSAINSGGGSTSYADSVKGRFTISRDNAKNTLYLQMNSLKPEDTAVYYCAKARTGWSLAVPSFGSWGQGTQVTVSS
For B1, the stoichiometry N in experiment [1] is 1.

B2: MBP-I3 (single domain antibody I3 with an N-terminal MBP fusion and a C-terminal 6X His-tag) (VHH)
VHH: B1 VHH
Turning to B2, the binding result in experiment [2] was “no binding (tested: 10 μM)”.
